Test results from paper doi:10.1101/2023.12.12.571160.

What was measured:
[1] = molecular target: prefusion-stabilized PRD-0038 S2 subunit trimer (PRD-0038 (clade 3 sarbecovirus)); experiment: negative-stain EM
[2] = molecular target: prefusion-stabilized SARS-CoV-1 S2 subunit trimer (SARS-CoV-1); experiment: negative-stain EM

Substance	stoichiometry N [1]	stoichiometry N [2]
prefusion-stabilized PRD-0038 S2 subunit trimer (domain or fragment)	3	–
prefusion-stabilized SARS-CoV-1 S2 subunit trimer (domain or fragment)	–	3
